Laboratory results as given in patent publication US20250312387A1, “BACTERIAL THERANOSTIC RADIOIMMUNOTHERAPY” (priority 2024, published 2025).

Tests used:
[1] = tested on: MC38 tumor cells; format: in vivo, C57BL/6 mice; settings: two hours after intravenous 10 nmol DOTA, mice injected intratumorally with Sal-o-DBP
Description: To determine the biodistribution of Sal-o-DBP, three groups of six-week old C57BL/6 mice were injected subcutaneously with 1×10^5 MC38 tumor cells. When tumors reached approximately 200 mm^3, the mice were injected intravenously or intratumorally with 1×10^7 CFU of Sal-o-DBP in 50 μL of saline, or intravenously with saline. Sixty hours after bacterial injection, mice were injected intraperitoneally (IP) with 100 mg arabinose in 400 μL saline. Sixty-six hours after bacterial injection mice were injected intravenously with 10 nmol DOTA in 50 μL of PBS. Two hours after DOTA injection, mouse tumors, spleens, livers, and kidneys were collected for biodistribution analysis. The organs were weighed before being homogenized in equal volumes of sterile PBS. Serial dilutions of the organ slurry were prepared (tumor 10^−5, spleen, liver, and kidney 10-2) and 50 μL of the dilutions were plated on LB agar plates containing 100 μg/mL carbenicillin and incubated overnight at 37° C. Colonies were counted and the total CFU/g was determined by the formula (colony count)×(dilution factor)[…].
To determine the biodistribution of DOTA, the organs were analyzed via inductively coupled plasma mass spectrometry (ICP-MS). Fifty μL of Iridium standard was added to each sample. The organ and water mixture was mixed with one mL of 3:1 nitric acid: hydrogen peroxide overnight. […]

[2] = cited from earlier work

For `O=C(O)CN1CCN(CC(=O)O)CCN(CC(=O)O)CCN(CC(=O)O)CC1` [DOTA, 2,2′,2″,2″′-(1,4,7,10-tetraazacyclododecane-1,4,7,10-tetrayl)tetraacetic acid], the “biodistribution of DOTA in tumor, liver, spleen, and kidney” value [1] was “strong levels in the tumor and kidneys with some DOTA remaining in the liver and spleen”.

B1: 2D12.5: monoclonal anti-DOTA(radiometal) antibody / scFv, SEQ ID NO: 1 (protein)
scFv: QVKLQESGPGLVQPSQSLSITCTVSGFSLTDYGVHWVRQSPGKGLEWLGVIWSGGGTAYTAAFISRLNIYKDNSKNQVFFEMNSLQANDTAMYYCARRGSYPYNYFDVWGQGTTVTVSSGGGGSGGGGSGGGGSQAVVTQESALTTSPGETVTLTCRSSTGAVTTSNYANWVQEKPDHLFTGLIGGNNNRPPGVPARFSGSLIGDKAALTIAGTQTEDEAIYFCALWYSNHWVFGGGTRLTVLG
modifications: 2D12.5 scFv
In the case of B1, the “affinity for DOTA chelates of yttrium and lutetium” value ([2]; monoclonal anti-DOTA(radiometal) antibody) is given as “low nanomolar affinity” and the Kd ([2]; pure scFv, DOTA-biotin-Y, read-out: binding kinetics of free 2D12.5 to DOTA-biotin-Y) is given as 3.7 nM.
